Laboratory results: paper PMC5016158

Biological target: Lucy-Flag-rsstr3-TAS2R14-HSV (rat | human) (UniProt P30936)
Chain of UniProt P30936 (P30936 whole entry): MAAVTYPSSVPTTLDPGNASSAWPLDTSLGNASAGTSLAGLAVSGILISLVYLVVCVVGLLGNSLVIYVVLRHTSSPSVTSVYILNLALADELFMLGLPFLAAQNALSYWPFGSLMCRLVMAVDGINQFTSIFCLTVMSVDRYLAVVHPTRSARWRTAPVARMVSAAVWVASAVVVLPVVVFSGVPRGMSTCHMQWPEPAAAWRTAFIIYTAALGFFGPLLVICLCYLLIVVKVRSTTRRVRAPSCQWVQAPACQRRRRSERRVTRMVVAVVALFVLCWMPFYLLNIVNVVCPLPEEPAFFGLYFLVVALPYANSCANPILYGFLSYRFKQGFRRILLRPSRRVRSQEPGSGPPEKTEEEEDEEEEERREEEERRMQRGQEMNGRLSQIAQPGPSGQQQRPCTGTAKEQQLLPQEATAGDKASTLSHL

## HA-β2AR (from UniProt P07550 1-413) (receptor)
  impairment by ISO (10 uM) of the relaxation of HASM cells (endogenous receptors) to the TAS2R14 agonist FFA (100 uM), magnetic twisting cytometry: 50%
